Experimental data: patent US8629107B2, “Genes and proteins associated with angiogenesis and uses thereof” (National Jewish Health, priority 2005, dated 2014)

B1: SMOC-2: secretory protein stably expressed in MB114 cells by retroviral transduction (protein, UniProt Q8CD91 22-447, looked up)
SPARC-related modular …: QKFSALTFLRVDQDKDRDCSLDCPSSPQKPLCASDGRTFLSRCEFQRAKCKDPQLEIAHRGNCKDVSRCVAERKYTQEQARKEFQQVFIPECNDDGTYSQVQCHSYTGYCWCVTPNGRPISGTAVAHKTPRCPGSINEKVPQREGAGKADDAAAPALETQPQGDEEDIASRYPTLWTEQVKSRQNKTNKNSASSCDQEHQSALEEAKQPKNDNVVIPECAHGGLYKPVQCHPSTGYCWCVLVDTGRPIPGTSTRYEQPKCDNTARAHPAKARDLYKNRPLQGCPGAKKHEFLTSVLDALSTDMVHAVSDPSSSSGRLSEPDPSHTLEERVVHWYFKLLDKNSSGDIGKKEIKPFKRFLRKKSKPKKCVKKFVEYCDMNNDKSITVQELMGCLGVTREEGKANTRKRHTPRGNAESSSSNRQPRKQG
B2: lumican: SLRP family secreted proteoglycan stably expressed in MB114 cells by retroviral transduction (protein, UniProt P51885 19-338, looked up)
Lumican: QYYDYDIPLFMYGQISPNCAPECNCPHSYPTAMYCDDLKLKSVPMVPPGIKYLYLRNNQIDHIDEKAFENVTDLQWLILDHNLLENSKIKGKVFSKLKQLKKLHINYNNLTESVGPLPKSLQDLQLTNNKISKLGSFDGLVNLTFIYLQHNQLKEDAVSASLKGLKSLEYLDLSFNQMSKLPAGLPTSLLTLYLDNNKISNIPDEYFKRFTGLQYLRLSHNELADSGVPGNSFNISSLLELDLSYNKLKSIPTVNENLENYYLEVNELEKFDVKSFCKILGPLSYSKIKHLRLDGNPLTQSSLPPDMYECLRVANEITVN

Assays:
[1] = tested on: vessel formation and infiltration into Matrigel plugs; assay: Matrigel plug implantation assay; type: in vivo, C57BL/6 mice
Description: The effect of MAGP-2 on vessel formation and infiltration into Matrigel plugs implanted into genetically normal mice was determined as described (Albig et al, 2006). Briefly, phenol red-free Matrigel (BD biosciences, Bedford, Mass.) was mixed with PBS (diluent), bFGF (50 or 300 ng/ml; R&D Systems, Minneapolis, Minn.), or recombinant MAGP-2 (1 μg/ml) together with bFGF (50 ng/ml), and the resulting mixtures were injected twice subcutaneously in the ventral groin area (400 μl/injection) of C57BL/6 mice. The mice were sacrificed 10 days post-implantation and the Matrigel plugs were dissected, fixed overnight in 10% formalin, and sectioned in the National Jewish Histology Laboratory. Afterward, Masson's trichrome staining was performed to visualize infiltrating vessels, which were quantified under a light microscope by determining the average number of vessels present in 5 random fields (200× magnification). Only those fields that contained at least one vessel in the area underlying the skin were tallied. Two mice were used per experimental condition and this experiment was performed three times in its entirety. All animal studies were performed according to protocol procedures approved by the Animal Care and Use Committee at National Jewish Medical and Research Center.
The inventors tested this hypothesis by utilizing the Matrigel plug implantation assay, which monitors the ability of various angiogenic agents to alter vessel formation and infiltration into Matrigel plugs implanted subcutaneously into normal mice. […] MAGP-2 purity was monitored by coomassie staining, and by immunoblotting with anti-FLAG M2 monoclonal antibodies (FIG. 2A; right panel). rMAGP-2 (1 μg/ml) stimulated angiogenic sprouting of quiescent MB114 cell monolayers (FIG. 2A; left panel). […] Afterward, the Matrigel plugs were fixed, sectioned, and stained with Masson's trichrome to visualize infiltrating blood vessels (FIG. 2B; right panels; arrows denote blood vessels), which were quantified by manual counting under a light microscope. […]

MB114 cells [2] = assay: cell proliferation, [3H]thymidine incorporation assay; type: cell-based, murine
Description: (§1) The effect putative angiogenic agents had on MB114 cell activities were determined as follows: (i) cell proliferation using a [^3H]thymidine incorporation assay as described (Albig et al, 2006; Albig and Schiemann, 2004; Albig and Schiemann, 2005); (ii) cell invasion through Matrigel matrices using a modified Boyden-chamber assay as described (Albig et al, 2006; Albig and Schiemann, 2004; Albig and Schiemann, 2005); (iii) p38 MAPK phosphorylation using immunoblot analyses as described (Albig et al, 2006; Albig and Schiemann, 2004; Albig and Schiemann, 2005); (iv) angiogenic sprouting in rat tail collagen matrices as described (Albig et al, 2006; Albig and Schiemann, 2004); and (v) Hes1- and SBE-driven luciferase reporter gene assays as described (Albig et al, 2006; Albig and Schiemann, 2004; Albig and Schiemann, 2005).
(§2) FIG. 1A show results from an experiment in which serum-starved MB114 cells, stably expressing either GFP or various putative angiogenic agents, were stimulated in the absence or presence of either bFGF (50 ng/ml) or EGF (10 ng/ml) for 24 h at 37° C. Differences in MB114 cell DNA synthesis was determined by measuring [^3H]thymidine incorporation into cellular DNA. […] In this experiment, invasion of MB114 cells expressing either GFP or various putative angiogenic agents through synthetic basement membranes was determined over 48 h using a modified Boyden-chamber assay.

MB114 cells [3] = assay: cell invasion through Matrigel matrices, modified Boyden-chamber assay; type: cell-based, murine; details: MB114 cells stably expressing the transgene vs GFP; 48 h
Description: as §1, §2

MB114 cells [4] = assay: angiogenic sprouting in rat tail collagen matrices; type: cell-based, murine; details: MB114 cells stably expressing the transgene vs GFP; 10% FBS, 5 days
Description: as §1
Finally, it was determined whether expression of these putative angiogenic factors could effect the angiogenic sprouting of quiescent MB114 cells monolayers. MB114 cells expressing either GFP or various putative angiogenic agents were grown to confluency, and subsequently were overlaid with rat tail collagen matrices. Angiogenic sprouting by quiescent EC monolayers was stimulated by inclusion of 10% FBS and allowed to proceed for 5 days. The quantity of invading angiogenic sprouts was determined by manual counting under a light microscope.
Based on the findings described in the Examples above, the inventors hypothesized that MAGP-2 promotes angiogenesis by antagonizing Notch1 signaling. To test this hypothesis, it was first determined whether inhibiting Notch signaling in MB114 cells would enhance their angiogenic sprouting. In doing so, MB114 cells were transiently transfected with the Hes1-luciferase reporter gene (and pCMV-β-gal cDNA as control), and subsequently were treated overnight with or without the highly specific gamma-secretase inhibitor, DAPT (Sastre et al, 2001), which inhibits S3-mediated cleavage of Notch1 and, consequently, NICD-mediated induction of Hes1 expression. Afterward, luciferase and β-gal activities were determined. […] In this experiment, quiescent MB114 cell monolayers were overlaid with rat tail collagen matrices, and were induced to form angiogenic sprouts by addition of 10% FBS supplemented with or without DAPT (10 μM). Five days later the number of invading angiogenic spouts were quantified by manual counting on a light microscope. Based on these findings, the inventors conclude that Notch activation functions in mediating angiostasis in MB114 cells. […] Collectively, these findings indicate that Notch1 signaling antagonizes angiogenic sprouting in MB114 cells, and that downregulation of Notch1 signaling components is necessary for angiogenesis activation in MB114 cells.
Having shown that Notch1 signaling mediates angiostasis in MB114 cells, the inventors next asked whether MAGP-2 promotes angiogenesis in MB114 cells via its ability to antagonize Notch signaling. To do so, MAGP-2-expressing MB114 cells were engineered to constitutively express active Notch1 NICD fragment in an attempt to overcome the block of Notch processing mediated by MAGP-2. More particularly, GFP-, MAGP-2-, and MAGP-2/N1ICD-expressing MB114 cells were transiently transfected with pHes1-luciferase and pCMV-β-gal cDNAs. Luciferase and β-gal activities were determined 48 h post-transfection. As the inventors observed previously, MAGP-2 expression reduced Hes1-luciferase activity in MB114 cells (FIG. 5C), a reaction that was bypassed by co-expression of NICD in these cells (FIG. 5C). […] In this experiment, quiescent monolayers of GFP-, MAGP-2-, and MAGP-2/N1ICD-expressing MB114 cells were overlaid with rat tail collagen matrices and incubated in the absence or presence of 10% FBS for 5 days. Afterward, the number of invading angiogenic sprouts were determined by manual counting under a light microscope.

p38 MAPK = p38 MAPK phosphorylation by immunoblot analyses; type: cell-based, murine; details: serum-starved MB114 cells expressing the transgene; bFGF 50 ng/ml or EGF 10 ng/ml, 0-15 min
Description: as §1
The inventors' previous studies have associated stimulation of p38 MAPK activity with angiogenesis of MB114 cells and, conversely, inhibition of p38 MAPK activity with angiostasis of MB114 cells (Albig et al, 2006; Albig and Schiemann, 2004; Albig and Schiemann, 2005). […] The phosphorylation status of p38 MAPK was determined by immunoblotting whole cell lysates with phospho-specific p38 MAPK antibodies (p38-P). Differences in protein loading were monitored by reprobing stripped membranes with anti-p38 MAPK polyclonal antibodies (p38).

MCA102 fibrosarcomas = MCA102 fibrosarcomas produced in mice; type: in vivo

Molecule | vascularization of implanted Matrigel plugs ([1]; 50 or 300 ng/ml in Matrigel vs diluent, subcutaneous, C57BL/6 mice, day 10) | proliferative response of MB114 cells to bFGF ([3H]thymidine incorporation into cellular DNA) (MB114 cells [2]; serum-starved MB114 cells stably expressing the transgene vs GFP, bFGF 50 ng/ml, 24 h, 37° C.) | MB114 cell invasion through synthetic basement membranes (MB114 cells [3]) | angiogenic sprouting of quiescent MB114 cell monolayers (MB114 cells [4]) | MB114 cell proliferation (MB114 cells [2]; transgene expression in MB114 cells, data not shown) | p38 MAPK phosphorylation (p38 MAPK) | development and infiltration of vessels in Matrigel plugs implanted into mice ([1]; unpublished observations) | growth of MCA102 fibrosarcomas produced in mice (MCA102 fibrosarcomas; unpublished observation) | blood vessel density of MCA102 fibrosarcomas produced in mice (MCA102 fibrosarcomas; unpublished observations)
bFGF: growth factor (R&D Systems) mixed into Matrigel at 50 or 300 ng/ml [reference compound] | dose-dependently stimulated |  |  |  |  |  |  |  | 
B1 |  | significantly enhanced | significantly induced | significantly increased |  |  |  |  | 
B2 |  |  |  | significantly decreased | inhibit | significantly inhibited | antagonizes | decreases | decreases
